In patent US20060031961A1, “Aldehyde reductase” (priority 2004, published 2006) one finds Activity data, which are given here for 2 molecules.

The subject of this experiment is aldehyde reductase. The experiment in a line: Aldehyde reductase activity assay of expressed, purified proteins (oxidation of NADPH, change in A340). The experiment is classed as biochemical, Soybean (Glycine max L.). As for the experimental part: The activity assay measured oxidation of NADPH on a UV500 UV-Visible double-beam Spectrometer (Unicam) by monitoring the change in A340. The assay was performed at room temperature (approximately 23° C.) by adding all of the following reagents into a 1-mL 1-cm quartz cuvette: 500 μL of 200 mM HEPES-KOH pH 7.0, 200 μL of ddH2O, 100 μL of 1 mM NADPH, 25-50 μL aldehyde reductase extract in a 100 μL total volume of 100 mM HEPES-KOH pH 7.0, 10% glycerol buffer. After these samples were mixed and blanked and were incubated for three minutes and a pre-substrate rate was calculated, the assay was started by addition of the substrate to the sample cuvette (solvent was added to the reference cuvette). Several different substrates were tested with each enzyme preparation. These substrates included the following: 100 μL of 100 mM glyceraldehyde, 10 μL of 100 mM glyceraldehyde, or 100 μL of 0.5% […] hexanal in v/v ethanol, or 100 μL of a carbonyl compounds mixture (ULTRA Scientific, North Kingston, R.I.; formaldehyde, acetaldehyde, propanal, butantal, pentanal, hexanal, heptanal, octanal, nonanal, decanal, cyclohexanone, and crotonaldehdye (in methanol)). The carbonyl compounds mixture contains approximately 16 μmole total aldehyde per assay. Except for the inactivity seen in one aldehyde reductase extract with hexanal as the substrate, both of the aldehyde reductase enzymes were active with each of the different substrates tested (see Table 6). As a control, an extract of E. coli proteins without the expressed aldehyde reductase enzymes was prepared and assayed the same way. […] A Bradford assay was performed to determine protein concentrations in the extracts, and the enzymatic rates were calculated. Table 6 presents the activity (in μmol of NADPH oxidized and were NADPH specific (i.e., no activity was observed when NADH was used as the reductant)/min^−1/mg protein^−1) obtained for the purified protein extracts from the plasmids and the source of the DNA. Enzyme activity was calculated as follows: (ΔA340/min; after correction for pre-substrate addition rates)/(6.2×mg enzyme/mL reaction mixture).

Setting [1] is: substrate 1 mM glyceraldehyde, NADPH.
The mark [2] stands for this setting: substrate 10 mM glyceraldehyde, 100 μL of 1 mM NADH substituted for NADPH.
Setting [3] is: substrate 10 mM glyceraldehyde, 100 μL of 10 mM ZnCl2 substituted for 100 μL ddH2O.
[4] abbreviates: substrate 10 mM glyceraldehyde, NADPH, room temperature, pH 7.0.
The mark [5] stands for this setting: substrate 100 μL 0.5% hexanal, NADPH.
The mark [6] stands for this setting: substrate 100 μL aldehyde mixture (carbonyl compounds mixture), NADPH.

Values joined by “and” are separate entries in the source; they are usually repeats but may differ in a detail not shown here. Equal values may be shown once.

B1: sls2c.pk027.a23:fis: soybean aldehyde reductase encoded by clone sls2c.pk027.a23:fis, expressed in E. coli and purified (protein)
chain: MAKSIKFFELNTGAKIPSLGLGTWQAEPGVVAEALTTAIQVGYRHIDCASAYKNQAEIGSALKKLFDDGVVKREDLWITSKLWCSDHAPEDVPKALDKTLQELQLDYLDLYLIHWPVRMKSGTFGLNKEYLEQPDIPNTWRAMEALYDSDKARAIGVSNFSSKKLQDLLDIARVVPAVNQVELHPGWQQPKLRAFCESKEIHLSGYSPLGSPAALKSDILKNPVVTEIAERLGKTPAQVALRWGLQAGHSVLPKSTNESRIKGNFDIFDWSIPQDLMTKISEIKQERLVKASFFVHETYGAYRSIEDFWDGEL
modifications: Glycine max
notes: soybean aldehyde reductase encoded by clone sls2c.pk027.a23:fis, expressed in E. coli and purified
In the case of B1, the Activity is, setting by setting: under setting [1], 0.14 μmol · min^−1 · mg protein^−1; under setting [2], 0.00 μmol · min^−1 · mg protein^−1; under setting [3], 0.28 μmol · min^−1 · mg protein^−1; under setting [4], 0.70 μmol · min^−1 · mg protein^−1 and 0.60 μmol · min^−1 · mg protein^−1 and 0.74 μmol · min^−1 · mg protein^−1; under setting [5], 0.00 μmol · min^−1 · mg protein^−1; under setting [6], 0.58 μmol · min^−1 · mg protein^−1.

B2: sr1.pk0003.c5: soybean aldehyde reductase encoded by clone sr1.pk0003.c5:fis, expressed in E. coli and purified (protein)
chain: MAKLIKFFELNTGAKIPSVGLGTWQAEPGVVAKAVTTAILVGYRHIDCAQAYNNQAEIGSALKKLFDDGVVKREDLWITSKLWCSDHASEDVPKALDKTLQDLQLDYLDLYLIHWPVRMKSGSVGFKKEYLDQPDIPSTWKAMEALYDSGKARAIGVSNFSSKKLQDLMNIARVPPAVNQVELHPGWQQPKLHAFCESKGVHLSGYSPLGSPGVLKSDILKNPVVIEIAEKLGKTPAQVALRWGLQTGHSVLPKSTNESRIKGNFDVFDWSIPEEVMDKFSEIKQDRLIKGTFFVDETYGAFKTVEELWDGEL
modifications: Glycine max
notes: soybean aldehyde reductase encoded by clone sr1.pk0003.c5:fis, expressed in E. coli and purified
In the case of B2, the Activity was 0.58 μmol · min^−1 · mg protein^−1 under setting [1]; 0.00 μmol · min^−1 · mg protein^−1 under setting [2]; 0.45 μmol · min^−1 · mg protein^−1 under setting [3]; 1.65 μmol · min^−1 · mg protein^−1 and 1.90 μmol · min^−1 · mg protein^−1 and 2.24 μmol · min^−1 · mg protein^−1 under setting [4]; 0.26 μmol · min^−1 · mg protein^−1 under setting [5]; 0.55 μmol · min^−1 · mg protein^−1 under setting [6].
